This data set has as its target AAV2 OBD (Adeno-associated virus 2, UniProt P03132 1-199). The data set is described as follows: X-ray crystallography.

Chain of AAV2 OBD (P03132 1-199): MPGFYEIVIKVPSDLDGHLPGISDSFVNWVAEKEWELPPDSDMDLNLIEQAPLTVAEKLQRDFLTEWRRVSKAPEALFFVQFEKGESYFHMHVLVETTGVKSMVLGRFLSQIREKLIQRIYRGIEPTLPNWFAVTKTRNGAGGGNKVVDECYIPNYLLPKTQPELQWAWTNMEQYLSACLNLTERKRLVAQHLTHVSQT

B1: ssRBS 14-mer (Site A) (ssDNA)
DNA: ATATGCTCGCTCTT
In the case of B1, the binding result is reported as “binds”.

For the origin of these results see publication doi:10.1101/2020.06.02.126235.
